Measurements taken from patent US20240158455A1, “MULTIPLE SCLEROSIS ASSOCIATED AUTOANTIGENS, AND USE THEREOF IN THERAPY AND DIAGNOSIS” (NEOGAP Therapeutics AB, priority 2017, published 2024).

System: T-cells in PBMCs from MS patients and healthy controls
Assay: FluoroSpot with full-length recombinant antigens (52 patients, 24 controls), with ROC analysis
Assay type: cell-based, human
Protocol: FIGS. 8A-8D. IFNγ/IL-22/IL-17 Fluorospot assay comparing T-cell activation in multiple sclerosis (MS)-patients and healthy controls when stimulated with full-length recombinant antigens (FABP7, PROK2, RTN3, SNAP91). Fifty-two Multiple Sclerosis patients and 24 healthy controls were tested for T-cell activation towards recombinant full-length versions of the autoantigens in a FluoroSpot assay. FIG. 8A: FABP7 isoform 2 (SEQ ID NO:1). FIG. 8B: PROK2 (SEQ ID NO:2). FIG. 8C: RTN3 SEQ ID NO:3. FIG. 8D: SNAP91 SEQ ID NO: 4. P-values calculated using Mann-Whitney test. Staples denote mean and C195%.
FIGS. 9A-9E. ROC-curves for the full-length antigens, Sensitivity and specificity when used as a diagnostic marker. Individually, the four antigens perform similarly as diagnostic markers for disease, all reaching a sensitivity of ˜50% with a specificity of 95%. FIG. 9A: FABP7 isoform 2. FIG. 9B: PROK2. FIG. 9C: RTN3. FIG. 9D: SNAP91. FIG. 9E: Using a combination of all four antigens as a diagnostic test achieves higher sensitivity and specificity. Specifically, utilizing the ratio of IL-17 divided by the square root of IFNγ response towards the mean response to the four antigens achieves a sensitivity of 70% with a specificity of >95%.
The full-length proteins can also be used in a similar way, see FIG. 9A-D. Utilizing all four full-length antigens, using each individual's average response to the four, increases the sensitivity and specificity further (FIG. 9E). Combining different readouts, such as analyzing the ratio between IL-17 and IFNγ, can increase the sensitivity of the test further (FIG. 9E, Table 2).
Recombinant full-length versions of the antigens FABP7 (SEQ ID NO: 1), PROK2 (SEQ ID NO: 2), RTN3 (SEQ ID NO: 3), SNAP91 (SEQ ID NO: 4) were produced in E. coli in house according to standard recombinant protein production protocols and purified via his-tag purification. 52 patients and 24 controls were tested for reactivity towards the antigens in an IFNγ/IL17/IL22 FluoroSpot assay as previously described.
A second, larger, cohort was collected in order to test the full length antigens. In this cohort, 52 patients and 24 healthy controls were included. The inclusion/exclusion criteria (table 5) as well as the sampling and PBMCs isolation were the same.
The antigens (FABP7, PROK2, RTN3 and SNAP91) picked out from the screening of PrESTs described in Example 1 and 2 were selected for further testing on the full-length versions of the protein. The full-length antigens were produced by transforming plasmids encoding the antigen and a […] into Escherichia coli. After growth, the bacteria were lysed and the protein purified from the supernatant of the bacterial lysis via 6× histidine-tag purification on an immobilized metal affinity chromatography-column. The antigens were subsequently coupled to beads and endotoxin-washed as previously described.
The FluoroSpot assay was performed under sterile conditions in a cell culture hood. The cells were thawed in a water bath at 37° C. and washed with cRPMI (RPMI 1640 medium, Sigma Aldrich, containing 10% fetal calf serum, 1% 200 mM L-Glutamine, 1% 10,000 U/ml Penicillin-10 mg/ml Streptomycin). The cells were counted manually using a light-microscope (Nikon TMS-F, Nikon, Japan) and subsequently diluted in cRPMI to a concentration of 2.5×10^6 cells/ml. The FluoroSpot plate (Human IFNγ/IL-22/IL-17A FluoroSpot kit, pre-coated, Mabtech, Sweden) was washed with PBS and then blocked with cRPMI for 30 min at room temperature. The blocking cRPMI was then discarded and 100 μl fresh cRPMI was added to each well of the FluoroSpot plate. Antigen (3×10^6 beads) was added to each well in duplicates according to a specific layout. In accordance to the manufacturer's protocol, anti-CD3 was used as a positive control. Both uncoupled beads and media without stimuli was used as negative controls. PBMCs (250,000 cells) in 100 μl cRPMI were added to each well (125,000 cells for the anti-CD3). […]

B1: SNAP91: recombinant full-length SNAP91 (SEQ ID NO: 4) produced in E. coli (protein, listed as Homo sapiens)
chain: MSGQTLTDRIAAAQYSVTGSAVARAVCKATTHEVMGPKKKHLDYLIQATNETNVNIPQMADTLFERATNSSWVVVFKALVTTHHLMVHGNERFIQYLASRNTLFNLSNFLDKSGSHGYDMSTFIRRYSRYLNEKAFSYRQMAFDFARVKKGADGVMRTMAPEKLLKSMPILQGQIDALLEFDVHPNELTNGVINAAFMLLFKDLIKLFACYNDGVINLLEKFFEMKKGQCKDALEIYKRFLTRMTRVSEFLKVAEQVGIDKGDIPDLTQAPSSLMETLEQHLNTLEGKKPGNNEGSGAPSPLSKSSPATTVTSPNSTPAKTIDTSPPVDLFATASAAVPVSTSKPSSDLLDLQPDFSSGGAAAAAAPAPPPPAGGATAWGDLLGEDSLAALSSVPSEAQISDPFAPEPTPPTTTAEIATASASASTTTTVTAVTAEVDLFGDAFAASPGEAPAASEGAAAPATPTPVAAALDACSGNDPFAPSEGSAEAAPELDLFAMKPPETSVPVVTPTASTAPPVPATAPSPAPAVAAAAAATTAATAAATTTTTTSAATATTAPPALDIFGDLFESTPEVAAAPKPDAAPSIDLFSTDAFSSPPQGASPVPESSLTADLLSVDAFAAPSPATTASPAKVDSSGVIDLFGDAFGSSASEPQPASQAASSSSASADLLAGFGGSFMAPSPSPVTPAQNNLLQPNFEAAFGTTPSTSSSSSFDPSVFDGLGDLLMPTMAPAGQPAPVSMVPPSPAMAASKALGSDLDSSLASLVGNLGISGTTTKKGDLQWNAGEKKLTGGANWQPKVAPATWSAGVPPSAPLQGAVPPTSSVPPVAGAPSVGQPGAGFGMPPAGTGMPMMPQQPVMFAQPMMRPPFGAAAVPGTQLSPSPTPASQSPKKPPAKDPLADLNIKDFL
reactivity of MS patients PBMCs versus controls, IFNγ: apart from IFNγ for SNAP91 | reactivity of MS patients PBMCs versus controls, IL17 and IL22: significantly higher reactivity
